Data from the nanobody polyreactivity screen of Harvey et al. (2022).

test: yeast display, Sf9 membrane polyspecificity reagent, FACS + sequencing; frameworks hold sequencing errors
How it was run: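 Polyreactivity labels are assigned by the sorting gate from which each nanobody was recovered. The gates were low and high (top ~1%), set on anti-HA fluorescence for expression and streptavidin fluorescence for reagent binding. Before sorting, galactose-induced (36–48 hours) yeast display cells were stained for 1 hour at 4 °C with 10% biotinylated, detergent-solubilized Sf9 membrane reagent.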

Row | Sequence | polyreactivity (PSR sort gate)
1 | QVQLVESGGGLVQAGGSLRLSCAASAYIYRGYPLGRYRQAPGKERELVAAISNIGGTTYYADSVKGRFTISRDNAKNTVYLQMISLKREDTEVYYCAAEHSYWGWAYGYWGQGTQVTLSS | high polyreactivity
2 | QVQLVESGGALDQAGGSLRLSCAASGSTFYYYAMGWYRQAPGKERELVAAISTSDGSTYYADSVKGRFTISRDNAKNTVYLQMNSLKPEDTAVYYCAADSHDRFPSYYYWGQGTQVTVSS | low polyreactivity
3 | QVQLVESGGGLVQAGGSLRLSCAASGSIFTVYAMGWYRQAPGKERELVAVINYRGGNTYYADSVKGRFTISRDNAKNTVYLQMNSLKPEDTAVYNCATEVSWHWYQLSVPRMDYWGQGTQVTVSS | low polyreactivity
4 | QVQLVESGGGLVQAGGSLRLSCAASGRIFYNYAMGWYRQAPGKETELVAAISGSGGSTYYADSVKGRFTISRDNAKNTVYLLMNSLKPEDTAVYYCSTSGQQYYSRNFDYWGQGTQVTVSS | low polyreactivity
5 | QVQLVESGGGLVQAGGSLRLSCAASGGTLKYYAMGLYRQAPGKERELVATISSRGGSTYYADSVKGRFTISRDNAKNTVYLQMNSLKPEDTAVYYCARRYWVQSRYPELDYWGQGTQVTVSS | high polyreactivity
6 | QVQLVESGGGLVQAGGSLRLSCAASGIIFVPNTMGWYRQAPGKERELVAAIRWSGGTTYYADSVKGRFTISRDNAKNTVYLQMNSLKPEDTAVYYCAARYGSRSSYLAYYYWGQGTQVTVSS | high polyreactivity
7 | QVQLVESGGGLVQAGGSLPLSCAASGSNLRRYDMGLYRQAPGKERELVAAISSSGGSTYYADSVKGRFTISRDNAKNTVYLQMNSLKPEDTAVYYCAADIYDDDRSEYTEYDYWGQGTHVTVSS | low polyreactivity
8 | QVQLVESGGGLFQAGGSLRLSCAASGRTFCPYTMGWYRQAPGKERELVAVISSNDGSTDYADSVKGRFTFSRDNAKNTVYLQMNSLKPEDTAVYYCAAEVYFGYYGGYGYWGQGTQVTVSS | low polyreactivity
9 | QVQLVESGGGLVQAGGSLLLSCAASRSISYAYAMGWYRQAHGKERELVAAISWSDGSTYYADSVKGRFTISRDNAKNTVYLQMNSLKPEDTAVYYCAADYGWHYGDWYDYWGQGTQVTVSS | low polyreactivity
10 | QVQLVESGGGLVQAGGSLRFSCAASGSTFSYYTMGWYRQAPGKERELVATISRRGASTYYADSVKGRFTISRDNAKNTVYLQMNSLKPEDTAVYYCAKSYYYGRSATRPEYDYWGQGTQVTVSS | high polyreactivity
11 | QVQLVESGGGLVQAGGSLRLSCAASGSTFRSYAMGWYRQAPGKERELVARISYRTGSTYYADSVKGRFTISRDNAKNTVYLQMNSLKPEDTAVYYCATRGSYVGGLYDYWGQGTQVTVSS | high polyreactivity
12 | QVQLVESGGGLVQAGGSLRLSCADSGSTFRANAMGWYRQAPGKERELVAAISQSGGITYYADSVKGRFTISRDNAKNSVYLQMNSLKPEDTAVYYCAAEYWFYYVDSFYYWGQGTQVTVSS | high polyreactivity
13 | QVQLVESGGGLVQAGGSLRLSCAASGRTFPLYAMGWYRQAPGKERELVARINRGGSTYYADSVKGRFTISRDNAKNTVYLQMNSLKPEDTAVYYCNARHTWHQTYDYWGQGTQVTVSS | low polyreactivity
14 | QVQLVESGGGLVQAGGSLRLSCAASGRTFKVYAMGWYRQAPGKERELVASINRGSSTYADSVKGRFTISRDNAKNTVYLQMNSLKPEDTAVYYCAARWWRQSRYYYWGQGTQVTVSS | high polyreactivity
15 | QDQLVESGVGLDQAGVSLRLSCAASGRTFKGNAMGWYSQATGKESELVAVITGSGGSTYYADSVKGRFTISRDNAKNTVYLQMTSLKPEDTAVYYCNKTLQRRSWYDYWGQGTQVTVSS | low polyreactivity
16 | QVQLVESGGGLVQAGGSLRLSCAASGSTFGPYAMGWYRQAPGKERELVAVITTSGSTNYADSVKGRFTISRDNAKNTVYLQMNSLKPEDTAVSYCAARYRYYGTNRYYYWGQGTQVTVSS | high polyreactivity

Row | Sequence | polyreactivity (PSR sort gate)
17 | QVQLVESGGGLVQAGGSLRLSCAASGFTIRSYVMGWYRQAPGKERELVAAIRRSGGSTYYADSVKGRFTISRDNAKNTVYLHMNSMKPEDTAVYYCAAKAYTYYARIGFDYWGQGSQVTVSS | high polyreactivity
18 | QVQLVESGGGLVQAGGSLRLSCAASGSIFGTYAMGWYRQAPGKERELVAAITGSGGRTYYADSVKGRFTISRDNAKNTVYLQLNSLKPEDTAVYYCNKVVYVRSYPPRYDYWGQGTQVTVSS | high polyreactivity
19 | QVQLVESGGGLVQAGGSLRLSCAASGFIQPYNTMGWYRQAPGKEREFVAAINYSGGRTYYADSVKGRFTISRDNAKNTVYLQMNRLKPEDTAVYYCAAARYPYRYKYNYWGQGTQVTVSS | high polyreactivity
20 | QVQLVESGGGLVQAGGSLRLSCAASGFIFIRYAMGWYRQAPGKERELVAAINGGGSSTYYADSVKGRFTISRDNAKNTVYLQMNSLKPEDTAVYYCAADTDSWWYYLYYGDGFDYWGQGTQVTVSS | high polyreactivity
21 | QVQLVESGGGLVQAGGSLRLSCAASGSTFHSNAMGWYRQAPGKERELVAAISQGGGRTYYADSVKGRFTISRDNAKNTVYLQMNSLKPEDTAVYYCNRRTRGLIDGGMDYWGQGTQVTVSS | low polyreactivity
22 | QVQLVESGGGLVQAGGSLRLSCAASGSISDVYAMGSYRQAPGKETELVAAITSGASTYYADSVKGRFTISRDNAKNTVYLQMNSLKPEDTAVYYCAADSDSQWGMDYWGQGTQVTVSS | low polyreactivity
23 | QDQLVESGGGLVQAAGSLRLTCAASGLTFAYYAMGWNRQAPGKERELVAAISWNGGRTYYADSVKGRFTISRDNAKNTVYLQMNSLKPEDTAVDYCAAEVTSSFYWGQGSQVTVSS | high polyreactivity
24 | QVQLVESGGGLVQAGGSLRLSCAASGLILDGNAMGWYRTAPGKERELVAAITRSGGRTYYADSVKGRFTISRDNAKNTVYFQMNSLKPEDTAVYYCAALGWSGRYRYDYWGQGTQVTVSS | high polyreactivity
25 | QVQLVESGGGLVQAGGSLRLSCAASGFTLRLNAMGWYRQAPGKERELVAAITTSDDGTYYADSVKGRFTISRDNAKNSVYLQLNSLKPEDTAVYYCAADYYSVLYDYWGQGTQVTVSS | low polyreactivity
26 | QVQLVESGGGLVQAGGSLRLSSAASGFTFYYNAMGWYRQAPGKERELVAAITRTGSTNYADSVKGRFTISRDNAKNTVYLQMNSLKPEDTAVYYCAKTYRRTNWGTYDYWGQGTQVTVSS | high polyreactivity
27 | QVQLVESGGGLVQAGGSHRLSCAASGRIFDKNAMGWYRQAPGKERELVAAINRSGGRTYYADSVKGRFTISRDNAKNTVYLQMNSLKPEDTAVYYCAADTQGSRYDYWGQGTQVTVSS | high polyreactivity
28 | QVQLVESGGGLVQAGGSLRLSCAASGSIFYSYAMGWYRQAPGKARELVATISWAGGRTNYADSVKGRFTISRDNAKNTEYLQMNSLKPEDTAVSYCNKPFPYYPDGPNGYDYWGQGTQVTVSS | low polyreactivity
29 | QVQLVESGGGLVQAGGSLRLSCAASGIIFANNDMGWSRQAPGKERELVAVITFSDGSTYYADSVKGRFTISRDNAKNTVYLQMNSLKPEDTAVYYCATRIRSYYYWGQGTQVTVSS | high polyreactivity
30 | QVQLVESGGGLVQAGGSLRLSCEASGSTFYRYAMGWYRQAPGKERELVDAISSSGGSTYYADSVKGRFTISRDNAKNTVYLQMNSLKPEDTAVYYCNASYRVRRFDYWGQGTQVTVSS | low polyreactivity
31 | QVQLVESGGGLVQAGGSLRLSCAASGFTFYTKAMGWYRQAPGKERELVAGINSGSSTYYADSVKGRFTISRDNAKNTVYLQMNSLKPEDTAVYYCAARRSRYILRGFGYWGQGTQVTVSS | high polyreactivity
32 | QVQLVESGGRLVQAGGSIRLSCAASGSIFVQYAMGWYRPAPGKERELVAAIDFSDTSTYYADSVKGLFTISRDNAKITVYLQMNSLKPEDTAVYYCAAEEDSPSRSAIAVEEYLGQGTQVTVSS | low polyreactivity
